Results taken from patent US20210032299A1 (Eli Lilly, published 2021).
Starred links: 1 amine or outer side, 2 acyl side, 3 side chain; linkers in the order of their positions; H or OH if unused. Non-standard residues stand in square brackets, D forms with d. Groups on a side chain read outwards from the residue. No end group written: not given here. *: point of attachment. C20 diacid = O=C(O)CCCCCCCCCCCCCCCCCCC(=O)*; C18 diacid = O=C(O)CCCCCCCCCCCCCCCCC(=O)*; γGlu = O=C(O)[C@H](CCC(=O)[*:2])N[*:1]; αMeF = C[C@](N)(Cc1ccccc1)C(=O)O; 4Pal = N[C@@H](Cc1ccncc1)C(=O)O; αMeL = CC(C)C[C@](C)(N)C(=O)O; AEEA = NCCOCCOCC(=O)O; Aib = CC(C)(N)C(=O)O

T1: human glucose-dependent insulinotropic polypeptide (GIP) receptor (human, UniProt P48546 22-466)
T1 construct: whole, on cells; Assayed as crude membranes of stably transfected CHO cells; also called hGIPR; human GIP receptor
T1 sequence (looked up): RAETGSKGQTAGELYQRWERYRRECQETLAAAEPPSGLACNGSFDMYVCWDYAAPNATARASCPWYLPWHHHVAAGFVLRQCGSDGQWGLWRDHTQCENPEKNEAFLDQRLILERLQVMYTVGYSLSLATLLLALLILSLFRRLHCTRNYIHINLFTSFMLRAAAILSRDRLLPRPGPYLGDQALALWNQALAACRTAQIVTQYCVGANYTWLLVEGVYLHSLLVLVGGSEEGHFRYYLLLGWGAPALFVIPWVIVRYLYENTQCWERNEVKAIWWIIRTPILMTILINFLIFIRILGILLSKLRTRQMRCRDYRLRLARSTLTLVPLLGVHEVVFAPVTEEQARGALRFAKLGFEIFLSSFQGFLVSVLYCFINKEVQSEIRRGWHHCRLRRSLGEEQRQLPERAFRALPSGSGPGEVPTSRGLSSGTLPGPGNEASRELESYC


Experiments:
human glucagon receptor = molecular target: T2, human glucagon receptor (human, UniProt P47871 26-477); assay: SPA, displacement of [125I]-Gcg from hGcgR membranes, 0.1% bacitracin
T2 construct: whole, on cells; Assayed as crude membranes of stably transfected HEK293 cells; also called hGcgR; GcgR
T2 sequence (P47871 26-477): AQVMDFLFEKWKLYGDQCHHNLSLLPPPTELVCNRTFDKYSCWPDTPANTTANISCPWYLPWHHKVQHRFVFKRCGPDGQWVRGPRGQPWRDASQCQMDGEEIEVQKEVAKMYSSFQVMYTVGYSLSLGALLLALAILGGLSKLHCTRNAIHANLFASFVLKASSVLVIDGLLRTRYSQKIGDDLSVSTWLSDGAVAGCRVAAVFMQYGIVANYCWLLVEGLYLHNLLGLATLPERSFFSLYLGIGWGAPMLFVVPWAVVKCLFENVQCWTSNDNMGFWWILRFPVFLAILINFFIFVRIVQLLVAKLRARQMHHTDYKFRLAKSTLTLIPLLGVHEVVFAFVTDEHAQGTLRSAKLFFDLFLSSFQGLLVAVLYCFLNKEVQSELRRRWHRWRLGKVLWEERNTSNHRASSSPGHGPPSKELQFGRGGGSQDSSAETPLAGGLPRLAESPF
Method: The binding buffer contains 25 mM 4-(2-hydroxyethyl)-1-piperazineethanesulfonic acid (HEPES), pH 7.4, 2.5 mM CaCl₂), 1 mM MgCl₂, 0.1% (w/v) bacitracin (Research Products), 0.003% (w/v) Polyoxyethylenesorbitan monolaurate (TWEEN®-20), and Roche Complete™ Protease Inhibitors without EDTA. […] Plates are sealed and mixed on a plate shaker (setting 6) for 1 minute and read with a PerkinElmer Trilux MicroBeta® scintillation counter after 12 hours of incubation/settling time at room temperature.
Data are analyzed using four-parameter (curve maximum, curve minimum, […], Hill slope) nonlinear regression routines (Genedata Screener, version 12.0.4, Genedata AG, Basal, Switzerland). […] Values for Kᵢ are reported as the geometric mean, with error expressed as the standard error of the mean (SEM) and n is equal to the number of independent replicates (determined in assays performed on different days).

[1] = molecular target: T1, human glucose-dependent insulinotropic …; assay: SPA, displacement of [125I]-GIP from hGIPR membranes, 0.1% bacitracin
human GLP-1 receptor = molecular target: T3, human GLP-1 receptor (human, UniProt P43220 24-463); assay: SPA, displacement of [125I]-GLP-1 from hGLP-1R membranes, 0.1% bacitracin
T3 construct: whole, on cells; Assayed as crude membranes of stably transfected HEK293 cells; also called hGLP1R; hGLP-1R
Procedure, shortened: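 Binding buffer: 25 mM HEPES pH 7.4, 2.5 mM CaCl₂, 1 mM MgCl₂, 0.1% bacitracin, 0.003% Tween-20, protease inhibitors without EDTA. Four-parameter nonlinear regression; Kᵢ given as geometric mean ± SEM, n = independent replicates run on different days.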

Row | Binder | Ki (human glucagon receptor) | Ki [1] | Ki (human GLP-1 receptor)
1 | Y[Aib]EGT[αMeF]ISDYSIALDKK([AEEA-AEEA-γGlu-C20 diacid])HQ[Aib]DFVE[4Pal]LLETGPSSGAPPPS-NH2 (N-terminus assumed; SMILES CC[C@H](C)[C@H](NC(=O)[C@H](CO)NC(=O)[C@H](Cc1ccc(O)cc1)NC(=O)[C@H](CC(=O)O)NC(=O)[C@H](CO)NC(=O)[C@@H](NC(=O)[C@](C)(Cc1ccccc1)NC(=O)[C@@H](NC(=O)CNC(=O)[C@H](CCC(=O)O)NC(=O)C(C)(C)NC(=O)[C@@H](N)Cc1ccc(O)cc1)[C@@H](C)O)[C@@H](C)CC)C(=O)N[C@@H](C)C(=O)N[C@@H](CC(C)C)C(=O)N[C@@H](CC(=O)O)C(=O)N[C@@H](CCCCN)C(=O)N[C@@H](CCCCNC(=O)COCCOCCNC(=O)COCCOCCNC(=O)CC[C@H](NC(=O)CCCCCCCCCCCCCCCCCCC(=O)O)C(=O)O)C(=O)N[C@@H](Cc1c[nH]cn1)C(=O)N[C@@H](CCC(N)=O)C(=O)NC(C)(C)C(=O)N[C@@H](CC(=O)O)C(=O)N[C@@H](Cc1ccccc1)C(=O)N[C@H](C(=O)N[C@@H](CCC(=O)O)C(=O)N[C@@H](Cc1ccncc1)C(=O)N[C@@H](CC(C)C)C(=O)N[C@@H](CC(C)C)C(=O)N[C@@H](CCC(=O)O)C(=O)N[C@H](C(=O)NCC(=O)N1CCC[C@H]1C(=O)N[C@@H](CO)C(=O)N[C@@H](CO)C(=O)NCC(=O)N[C@@H](C)C(=O)N1CCC[C@H]1C(=O)N1CCC[C@H]1C(=O)N1CCC[C@H]1C(=O)N[C@@H](CO)C(N)=O)[C@@H](C)O)C(C)C) [Example 41] | 758 nM | 0.143 nM | 
2 | Y[Aib]EGTFISDYSI[αMeL]LDKK([AEEA-AEEA-γGlu-C18 diacid])HQ[Aib]DFVE[4Pal]LLAGGPSSGAPPPS-NH2 (N-terminus assumed; SMILES CC[C@H](C)[C@H](NC(=O)[C@H](Cc1ccccc1)NC(=O)[C@@H](NC(=O)CNC(=O)[C@H](CCC(=O)O)NC(=O)C(C)(C)NC(=O)[C@@H](N)Cc1ccc(O)cc1)[C@@H](C)O)C(=O)N[C@@H](CO)C(=O)N[C@@H](CC(=O)O)C(=O)N[C@@H](Cc1ccc(O)cc1)C(=O)N[C@@H](CO)C(=O)N[C@H](C(=O)N[C@@](C)(CC(C)C)C(=O)N[C@@H](CC(C)C)C(=O)N[C@@H](CC(=O)O)C(=O)N[C@@H](CCCCN)C(=O)N[C@@H](CCCCNC(=O)COCCOCCNC(=O)COCCOCCNC(=O)CC[C@H](NC(=O)CCCCCCCCCCCCCCCCC(=O)O)C(=O)O)C(=O)N[C@@H](Cc1c[nH]cn1)C(=O)N[C@@H](CCC(N)=O)C(=O)NC(C)(C)C(=O)N[C@@H](CC(=O)O)C(=O)N[C@@H](Cc1ccccc1)C(=O)N[C@H](C(=O)N[C@@H](CCC(=O)O)C(=O)N[C@@H](Cc1ccncc1)C(=O)N[C@@H](CC(C)C)C(=O)N[C@@H](CC(C)C)C(=O)N[C@@H](C)C(=O)NCC(=O)NCC(=O)N1CCC[C@H]1C(=O)N[C@@H](CO)C(=O)N[C@@H](CO)C(=O)NCC(=O)N[C@@H](C)C(=O)N1CCC[C@H]1C(=O)N1CCC[C@H]1C(=O)N1CCC[C@H]1C(=O)N[C@@H](CO)C(N)=O)C(C)C)[C@@H](C)CC) [Example 49] |  | 0.0512 nM | 596 nM
3 | YXEGTXISDYSIXLDKKHQXDFVEXLLAGGPSSGAPPPS (Aib2; Iva6; αMeL13; K17((2-[2-(2-Amino-ethoxy)-ethoxy]-acetyl)2-(γ-Glu)-CO-(CH2)18-CO2H); Aib20; 4-Pal25; C-terminal amide) [Example 55] |  | 0.0331 nM | 262 nM
4 | Y[Aib]EGT[αMeL]ISDYSIALDKK([AEEA-AEEA-γGlu-C20 diacid])HQ[Aib]EFVNYLLATGPSSGAPPPS-NH2 (N-terminus assumed; SMILES CC[C@H](C)[C@H](NC(=O)[C@H](CO)NC(=O)[C@H](Cc1ccc(O)cc1)NC(=O)[C@H](CC(=O)O)NC(=O)[C@H](CO)NC(=O)[C@@H](NC(=O)[C@](C)(CC(C)C)NC(=O)[C@@H](NC(=O)CNC(=O)[C@H](CCC(=O)O)NC(=O)C(C)(C)NC(=O)[C@@H](N)Cc1ccc(O)cc1)[C@@H](C)O)[C@@H](C)CC)C(=O)N[C@@H](C)C(=O)N[C@@H](CC(C)C)C(=O)N[C@@H](CC(=O)O)C(=O)N[C@@H](CCCCN)C(=O)N[C@@H](CCCCNC(=O)COCCOCCNC(=O)COCCOCCNC(=O)CC[C@H](NC(=O)CCCCCCCCCCCCCCCCCCC(=O)O)C(=O)O)C(=O)N[C@@H](Cc1c[nH]cn1)C(=O)N[C@@H](CCC(N)=O)C(=O)NC(C)(C)C(=O)N[C@@H](CCC(=O)O)C(=O)N[C@@H](Cc1ccccc1)C(=O)N[C@H](C(=O)N[C@@H](CC(N)=O)C(=O)N[C@@H](Cc1ccc(O)cc1)C(=O)N[C@@H](CC(C)C)C(=O)N[C@@H](CC(C)C)C(=O)N[C@@H](C)C(=O)N[C@H](C(=O)NCC(=O)N1CCC[C@H]1C(=O)N[C@@H](CO)C(=O)N[C@@H](CO)C(=O)NCC(=O)N[C@@H](C)C(=O)N1CCC[C@H]1C(=O)N1CCC[C@H]1C(=O)N1CCC[C@H]1C(=O)N[C@@H](CO)C(N)=O)[C@@H](C)O)C(C)C) [Example 35] |  | 0.0351 nM | 177 nM
5 | Y[Aib]EGTFISDYSI[αMeL]LDKK([AEEA-AEEA-γGlu-C20 diacid])HQ[Aib]DFVE[4Pal]LLETGPSSGAPPPS-NH2 (N-terminus assumed; SMILES CC[C@H](C)[C@H](NC(=O)[C@H](Cc1ccccc1)NC(=O)[C@@H](NC(=O)CNC(=O)[C@H](CCC(=O)O)NC(=O)C(C)(C)NC(=O)[C@@H](N)Cc1ccc(O)cc1)[C@@H](C)O)C(=O)N[C@@H](CO)C(=O)N[C@@H](CC(=O)O)C(=O)N[C@@H](Cc1ccc(O)cc1)C(=O)N[C@@H](CO)C(=O)N[C@H](C(=O)N[C@@](C)(CC(C)C)C(=O)N[C@@H](CC(C)C)C(=O)N[C@@H](CC(=O)O)C(=O)N[C@@H](CCCCN)C(=O)N[C@@H](CCCCNC(=O)COCCOCCNC(=O)COCCOCCNC(=O)CC[C@H](NC(=O)CCCCCCCCCCCCCCCCCCC(=O)O)C(=O)O)C(=O)N[C@@H](Cc1c[nH]cn1)C(=O)N[C@@H](CCC(N)=O)C(=O)NC(C)(C)C(=O)N[C@@H](CC(=O)O)C(=O)N[C@@H](Cc1ccccc1)C(=O)N[C@H](C(=O)N[C@@H](CCC(=O)O)C(=O)N[C@@H](Cc1ccncc1)C(=O)N[C@@H](CC(C)C)C(=O)N[C@@H](CC(C)C)C(=O)N[C@@H](CCC(=O)O)C(=O)N[C@H](C(=O)NCC(=O)N1CCC[C@H]1C(=O)N[C@@H](CO)C(=O)N[C@@H](CO)C(=O)NCC(=O)N[C@@H](C)C(=O)N1CCC[C@H]1C(=O)N1CCC[C@H]1C(=O)N1CCC[C@H]1C(=O)N[C@@H](CO)C(N)=O)[C@@H](C)O)C(C)C)[C@@H](C)CC) [Example 45] | 660 nM | 0.0663 nM | 
